Test results published in US20250102513A1.

Assays:
PA peptide [1] = experiment: >
PA peptide [2] = experiment: three sequential binding/encoding cycles with cycle-specific barcodes (BC4, BC5, BC13); NGS of the final product

share of extended recording tags with all three cycle barcodes (PA peptide [1]): 78%
share of extended recording tags with one barcode (PA peptide [2]): 1.1%
share of extended recording tags with two barcodes (PA peptide [2]): 20.7%
Substance: anti-PA antibody (Wako Chemicals)
